Measurements published in patent publication US20120177664A1 (IMMUNAS PHARMA, published 2012).
Residue numbers refer to the chain shown, from its start.

B1: IR-132 antibody (antibody, mouse IgG2b, V domains shown)
VH: DVQLVESGGGLVQPGGSRKLSCAASGFTFSSFGMHWVRQAPEKGLEWVAYISSGSSTIYYADTVKGRFTISRDNPKNTLFLQMTSLRSEDTAMYYCARDGNYVGWFAYWGQGTLVTVSA
VL: DVVMTQTPLSLPVSLGDQASISCRSSQSLVHSNGNTYLHWYLQKPGQSPKLLIYKVSNRFSGVPDRFSGSGSGTDFTLKISRVEAEDLGVYFCSQSTHVPLTFGAGTKLELK
notes: mouse IgG2b
B2: IR-139 antibody (antibody, mouse IgG2b, V domains shown)
VH: DVQLVESGGGLVQPGGSRKLSCAASGFTFSSFGMHWVRQAPEKGLEWVAYISSGSSTIYYADTVKGRFTISRDNPKNTLFLQMTSLRSEDTAMYYCARDEGYFDYWGQGTTLTVSS
VL: B1 VL
notes: mouse IgG2b
B3: IR-155 antibody (antibody, V domains shown)
VH: DVQLVESGGGLVQPGGSRKLSCAASGFTFSSFGMHWVRQAPEKGLEWVAYISSGSSTIYYADTVKGRFTISRDNPKNTLFLQMTSLRSEDTAMYYCARLDGYRGDYWGQGTTLTVSS
VL: B1 VL with A105S, L111I
notes: mouse IgG2a
B4: IR-135 antibody (antibody, V domains shown)
VH: QVQLQQSGAELAKPGASVKMSCKASGYTFTSYWMHWVKQRPGQGLEWIGYINPSTGYTEYNQKFKDKATLTADKSSSTAYMQLSSLTSEDSAVYYCDYYGSSYGYFDVWGAGTTVTVSS
VL: B1 VL with Y91F
notes: mouse IgG2a
B5: IR-150 antibody (antibody, mouse IgG2b, V domains shown)
VH: not shown
VL: B1 VL
notes: mouse IgG2b
B6: IR-154 antibody (antibody, V domains shown)
VH: DVQLVESGGGLVQPGGSRKLSCAASGFSFSSFGMHWVRQAPEKGLEWVAYISSGRSTIYYADTVKGRFTISRDNPKNTLFLQMTSLRSEDTAMYYCARLRGNLDYAMDYWGQGTSVTVSS
VL: B1 VL with L101F, A105S, L111I
notes: mouse IgG2a

Molecular target: T1, A beta oligomer (synthetic A beta1-40, HCl form, 0.1 mg/ml in PBS, incubated at 37 degrees C for one hour) (UniProt P05067 672-711)
T1 construct: domain: A beta1-40; non-fibrous multimer of the peptide; also called A beta 1-40 oligomer
Experiment: SPR (Biacore 3000)
Description: The analysis was carried out by Surface Plasmon Resonance (SPR) using Biacore 3000 (GE Healthcare Sciences).

Kd [nM] | koff [s⁻¹] | kon [M⁻¹ s⁻¹] | Binder
22.1 | 0.00517 | 234000 | B1
50.6 | 0.00165 | 32600 | B2
1050 | 0.37 | 351000 | B3
1290 | 0.116 | 89900 | B4
517 | 0.124 | 240000 | B5
1050 | 0.41 | 389000 | B6
